This test has as its target T1, human CCR5 (wild-type) (human, UniProt P51681 1-352).
T1 construct: also called wild-type CCR5
As to the kind of experiment: alanine scanning epitope mapping. From the text:
Epitope binding is investigated by using alanine scanning according to the method described by W. C. Olson et al. (J. Virol. (1999) 73:4145-55) for epitope mapping. […] 100% epitope binding is defined for wild-type CCR5. A further preferred anti-CCR5 antibody binds to the same epitope as antibody C binds.

These results are taken from patent US20090028881A1 (ROCHE PALO ALTO, published 2009).

T1 sequence (P51681 whole entry): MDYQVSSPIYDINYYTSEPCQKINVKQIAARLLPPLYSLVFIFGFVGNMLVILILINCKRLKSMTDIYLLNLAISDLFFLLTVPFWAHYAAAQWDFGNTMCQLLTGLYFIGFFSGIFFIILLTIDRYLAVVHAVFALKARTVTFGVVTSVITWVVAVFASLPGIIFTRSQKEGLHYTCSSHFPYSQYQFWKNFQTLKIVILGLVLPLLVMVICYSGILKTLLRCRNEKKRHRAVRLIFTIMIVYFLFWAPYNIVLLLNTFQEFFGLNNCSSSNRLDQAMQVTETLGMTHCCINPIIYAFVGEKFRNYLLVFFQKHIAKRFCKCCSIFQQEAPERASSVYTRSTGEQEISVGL

B1: <CCR5>Pz03.1C5 (antibody, V domains shown)
VH: QVQLKQSGPGLVRPSQSLSITCTVSGFPLGIFGVHWVRQSPGKGLEWLGVIWKGGNTDYNAAFMSRLRITKDNSKSQVFFRMNSLQTDDTAIYYCAKVNLADAMDYWGQGTSVIVSS
VL: DIQMTQSPASLSASVGETVTITCRASGNIHGYLAWFQQKQGKSPQLLVYNTKTLAEGVPSRFSGSGSGTQFSLKINSLQPEDFGNYYCQHHYDLPRTFGGGTKLEIKR
notes: also called Antibody C; m<CCR5>Pz03.1C5
As for B1, the binding result is on record as “binds”.
